The results in this text go back to publication PMC4539596, “Three-dimensional electron microscopy reconstruction and cysteine-mediated crosslinking provide a model of the type III secretion system needle tip complex” (Molecular Microbiology, 2014).

One data set concerns the target MxiH (Shigella flexneri) (UniProt P0A223). The data set can be described thus: avidin labelling with negative-stain EM; needle complexes with biotinylated Avitag proteins held on Ni-NTA beads by His6-MxiG, avidin in 300 to 500 molar excess overnight at 4°C, washed, eluted, negative stain; avidin counted on the needle tips.
Data set [1] has as its target IpaD (Shigella flexneri) (UniProt P18013). The data set can be described thus: negative-stain EM three-dimensional reconstruction; tip complex and needle of purified needle complexes from the wild-type strain; the half of the images with the lower cross-correlation to the ΔipaB map, 24 Å; complex assembled on the bacteria.
For data set [2] the target is unchanged. The data set can be described thus: negative-stain EM three-dimensional reconstruction; tip complex and needle of purified needle complexes from the ΔipaB strain; single particle and helical image analysis, 25 Å; complex assembled on the bacteria.
The target is the same in data set [3]. The data set can be described thus: negative-stain EM three-dimensional reconstruction; tip complex and needle of needle complexes purified on Ni-NTA by His6-MxiG from mxiH mutant strains (Q51A, P44A, P44A+Q51A), 21-24 Å; Q51A map refined to 19 Å; complex assembled on the bacteria.
The target of a further data set is IpaB (Shigella flexneri). The data set can be described thus: avidin labelling with negative-stain EM; needle complexes with biotinylated Avitag proteins held on Ni-NTA beads by His6-MxiG, avidin in 300 to 500 molar excess overnight at 4°C, washed, eluted, negative stain; avidin counted on the needle tips.
Data set [4] addresses IpaD_avitag (Shigella flexneri) (UniProt P18013). The data set is described as above.
Data set [5] concerns the molecule itself. The data set can be described thus: cross-linking; bacteria of otherwise wild-type background treated with 30 uM BM(PEG)2, quenched; crudely purified needle complexes, Western blot with anti-IpaD and anti-IpaB; no bands with the oxidiser; pattern unchanged on addition of Congo red.

Chain of MxiH (Shigella flexneri) (P0A223 whole entry): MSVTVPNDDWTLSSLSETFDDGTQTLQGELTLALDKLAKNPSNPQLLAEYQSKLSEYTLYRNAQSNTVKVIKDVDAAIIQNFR

Regarding IpaB_avitag (natural protein), the percent of needle tips labelled with at least one avidin with MxiH (Shigella flexneri) was 2.5%.
A word on the stoichiometry N: it is a count of units in the complex or per binding partner. For “IpaD (from UniProt P18013 1-332) (natural protein)”, the stoichiometry N stood at 4 with IpaD (Shigella flexneri) [1], 5 with IpaD (Shigella flexneri) [2], 4 with IpaD (Shigella flexneri) [3] and 4 with IpaB (Shigella flexneri).
As for “IpaD_avitag (from UniProt P18013 1-332) (natural protein)”, the percent of needle tips labelled with at least one avidin with MxiH (Shigella flexneri) turned out to be 25%. In data set [4], this molecule showed a stoichiometry N of 4.

B1: IpaD C322S/S173C/K258C (natural protein)
chain: MNITTLTNSISTSSFSPNNTNGSSTETVNSDIKTTTSSHPVSSLTMLNDTLHNIRTTNQALKKELSQKTLTKTSLEEIALHSSQISMDVNKSAQLLDILSRNEYPINKDARELLHSAPKEAELDGDQMISHRELWAKIANSINDINEQYLKVYEHAVSSYTQMYQDFSAVLSCLAGWISPGGNDGNSVKLQVNSLKKALEELKEKYKDKPLYPANNTVSQEQANKWLTELGGTIGKVSQKNGGYVVSINMTPIDNMLCSLDNLGGNGEVVLDNAKYQAWNAGFSAEDETMKNNLQTLVQKYSNANSIFDNLVKVLSSTISSSTDTDKLFLHF
notes: IpaD, Shigella flexneri, with the intrinsic cysteine 322 changed to serine and two cysteines put in (helix α3 and helix α6); also called ipaDS173C/K258C; source: S. flexneri ΔipaD, ΔipaB ΔipaD or ΔmxiH ΔipaD background, from pUC18 ipaD_(C322S); on needle tips, in sheared needles or crudely purified needle complexes
For B1, in data set [5], the “stoichiometry N” value amounted to 5.
